This note sets out measurements from the supplement of paper PMC7125110.

± gives the standard error. For some of these results: Variants at the floor of the assay were thinned out.

The labels stand for the following.
B1: glmS ribozyme (parent)
chain: AUAAAAGCGCCAGAACUACAGAAAUGUAGUUGACGAGGAGGAGGUUUAUCGAAUUUUCGGCGGAUGCCUCCAAA

Conditions in all cases: with glucosamine-6-phosphate
Variants of B1 are the subject of series [1]. Nature of the series: kcat; higher = faster cleavage; RNA array. The method in brief:
(§1)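 Barcoded ribozyme variants, transcribed in situ by E. coli RNA polymerase on sequenced MiSeq chips, were followed via a hybridised Cy3 probe at 37 °C. Glucosamine-6-phosphate ranged from 40 μM to 10 mM in HEPES/KCl/Mg(OAc)2 buffer. kobs came from decay fits to per-tile medians, and kcat and KM from weighted Michaelis–Menten fits.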

Series [2] covers variants of B1. Nature of the series: self-cleavage kobs at 40 uM GlcN6P; higher = faster cleavage; RNA array. In short, it runs like this:
as §1

Variants of B1 are the subject of series [3]. The series can be described thus: self-cleavage kobs at 160 uM GlcN6P; higher = faster cleavage; RNA array. The method in brief: as §1
Variants of B1 are the subject of series [4]. Nature of the series: self-cleavage kobs at 640 uM GlcN6P; higher = faster cleavage; RNA array. In short, it runs like this: as §1
In series [5] the parent is B1. Nature of the series: self-cleavage kobs at 2500 uM GlcN6P; higher = faster cleavage; RNA array. In short, it runs like this:
as §1

In series [6] the parent is B1. The series can be described thus: self-cleavage kobs at 10000 uM GlcN6P; higher = faster cleavage; RNA array. In short, it runs like this:
as §1

Series [7] covers variants of B1. Nature of the series: KM; higher = weaker cofactor use; RNA array. In short, it runs like this:
as §1

One may read the kcat as the maximal rate divided by the concentration of active sites. Take A15C U57G: the kcat with glucosamine-6-phosphate [1] was 2.37e-05 ± 5.5e-06 s⁻¹. The “self-cleavage kobs at 40 uM GlcN6P” value with glucosamine-6-phosphate [2] is < 1e-05 s⁻¹. The “self-cleavage kobs at 160 uM GlcN6P” value with glucosamine-6-phosphate [3] is < 1e-05 s⁻¹.
Consider U31A C67U, for which, in the series with glucosamine-6-phosphate [1], the kcat came out at 0.00291 ± 0.0011 s⁻¹. Moreover, the “self-cleavage kobs at 40 uM GlcN6P” value in the series with glucosamine-6-phosphate [2] was determined as 0.000116 ± 1.4e-05 s⁻¹. For the same variant, the “self-cleavage kobs at 160 uM GlcN6P” value with glucosamine-6-phosphate [3] amounted to 0.000324 ± 8.8e-05 s⁻¹. Besides, the “self-cleavage kobs at 640 uM GlcN6P” value with glucosamine-6-phosphate [4] was 0.00143 ± 0.00019 s⁻¹. For the same variant, the “self-cleavage kobs at 2500 uM GlcN6P” value with glucosamine-6-phosphate [5] stood at 0.00135 ± 0.00029 s⁻¹. Besides, in the series with glucosamine-6-phosphate [6], the “self-cleavage kobs at 10000 uM GlcN6P” value turned out to be 0.00427 ± 0.00063 s⁻¹.
With C11A C67U, in the series with glucosamine-6-phosphate [1], the kcat was found to be 4.14e-05 ± 2.5e-06 s⁻¹. Besides, in the series with glucosamine-6-phosphate [4], the “self-cleavage kobs at 640 uM GlcN6P” value was 3.1e-05 ± 1.4e-05 s⁻¹. The “self-cleavage kobs at 2500 uM GlcN6P” value with glucosamine-6-phosphate [5] is 3.53e-05 ± 1e-05 s⁻¹. The “self-cleavage kobs at 10000 uM GlcN6P” value with glucosamine-6-phosphate [6] came to 4.17e-05 ± 6.9e-06 s⁻¹.
What is called KM is the substrate concentration at which the rate is half of its maximum. As to G37A U54A U65G, the kcat with glucosamine-6-phosphate [1] came out at 0.000309 ± 7.3e-05 s⁻¹. Also, the KM with glucosamine-6-phosphate [7] was determined as 5170 ± 1900 µM. Moreover, in the series with glucosamine-6-phosphate [4], the “self-cleavage kobs at 640 uM GlcN6P” value was determined as 4.03e-05 ± 1.2e-05 s⁻¹. For the same variant, the “self-cleavage kobs at 2500 uM GlcN6P” value with glucosamine-6-phosphate [5] was 9.16e-05 ± 2e-05 s⁻¹. Also, the “self-cleavage kobs at 10000 uM GlcN6P” value in the series with glucosamine-6-phosphate [6] is 0.000215 ± 5e-05 s⁻¹.
Turning to A14U G29A, in the series with glucosamine-6-phosphate [1], the kcat came to 0.00088 ± 5.1e-05 s⁻¹. The KM with glucosamine-6-phosphate [7] was 3420 ± 290 µM. Moreover, in the series with glucosamine-6-phosphate [3], the “self-cleavage kobs at 160 uM GlcN6P” value amounted to 4.16e-05 ± 1e-05 s⁻¹. In addition, in the series with glucosamine-6-phosphate [4], the “self-cleavage kobs at 640 uM GlcN6P” value came out at 0.000137 ± 1.7e-05 s⁻¹. In addition, the “self-cleavage kobs at 2500 uM GlcN6P” value in the series with glucosamine-6-phosphate [5] was determined as 0.000368 ± 5.1e-05 s⁻¹. Further, the “self-cleavage kobs at 10000 uM GlcN6P” value with glucosamine-6-phosphate [6] worked out at 0.000665 ± 0.00011 s⁻¹.
As for C16A A33U, the kcat with glucosamine-6-phosphate [1] is 1.2e-05 ± 3e-06 s⁻¹. Moreover, in the series with glucosamine-6-phosphate [2], the “self-cleavage kobs at 40 uM GlcN6P” value was < 1e-05 s⁻¹. Further, in the series with glucosamine-6-phosphate [3], the “self-cleavage kobs at 160 uM GlcN6P” value was < 1e-05 s⁻¹.
Take C34G C68G: the kcat with glucosamine-6-phosphate [1] came out at 2.55e-05 ± 1e-05 s⁻¹.
Consider G51A C71A, for which the kcat in the series with glucosamine-6-phosphate [1] amounted to 1.9e-05 ± 9e-07 s⁻¹. Also, in the series with glucosamine-6-phosphate [7], the Michaelis constant (KM) is 105 ± 32 µM.
As for U65A G66C, the kcat with glucosamine-6-phosphate [1] stood at 0.000476 ± 5.1e-05 s⁻¹. Moreover, the KM in the series with glucosamine-6-phosphate [7] worked out at 1400 ± 320 µM. For the same variant, the “self-cleavage kobs at 640 uM GlcN6P” value with glucosamine-6-phosphate [4] is 0.000156 ± 3.2e-05 s⁻¹. In addition, the “self-cleavage kobs at 2500 uM GlcN6P” value with glucosamine-6-phosphate [5] was 0.000267 ± 8.2e-05 s⁻¹. For the same variant, the “self-cleavage kobs at 10000 uM GlcN6P” value with glucosamine-6-phosphate [6] was 0.000436 ± 8.9e-05 s⁻¹.
With G13C G29U, in the series with glucosamine-6-phosphate [1], the kcat is 0.000169 ± 1.6e-05 s⁻¹. In the series with glucosamine-6-phosphate [7], the KM is 3700 ± 710 µM. For the same variant, the “self-cleavage kobs at 640 uM GlcN6P” value with glucosamine-6-phosphate [4] came out at 3.22e-05 ± 1.3e-05 s⁻¹. The “self-cleavage kobs at 2500 uM GlcN6P” value in the series with glucosamine-6-phosphate [5] is 6.58e-05 ± 8.4e-06 s⁻¹. Besides, the “self-cleavage kobs at 10000 uM GlcN6P” value with glucosamine-6-phosphate [6] is 0.000125 ± 1.6e-05 s⁻¹.
For the variant A64U G66U, the kcat in the series with glucosamine-6-phosphate [1] was < 1e-05 s⁻¹. Also, the “self-cleavage kobs at 40 uM GlcN6P” value with glucosamine-6-phosphate [2] was < 1e-05 s⁻¹.
As to U31A, in the series with glucosamine-6-phosphate [1], the kcat was 0.0242 ± 0.0089 s⁻¹. For the same variant, the KM with glucosamine-6-phosphate [7] amounted to 2460 ± 1100 µM. For the same variant, the “self-cleavage kobs at 40 uM GlcN6P” value with glucosamine-6-phosphate [2] turned out to be 0.000428 ± 7.9e-06 s⁻¹. For the same variant, in the series with glucosamine-6-phosphate [3], the “self-cleavage kobs at 160 uM GlcN6P” value came out at 0.00127 ± 5.8e-05 s⁻¹. In addition, the “self-cleavage kobs at 640 uM GlcN6P” value with glucosamine-6-phosphate [4] amounted to 0.00431 ± 0.00015 s⁻¹. Further, the “self-cleavage kobs at 2500 uM GlcN6P” value with glucosamine-6-phosphate [5] amounted to 0.00997 ± 0.00043 s⁻¹. Further, in the series with glucosamine-6-phosphate [6], the “self-cleavage kobs at 10000 uM GlcN6P” value worked out at 0.0286 ± 0.0012 s⁻¹.
Regarding G37A C70U, the catalytic constant (kcat) with glucosamine-6-phosphate [1] worked out at 0.00286 ± 0.00083 s⁻¹. For the same variant, the KM with glucosamine-6-phosphate [7] is 3800 ± 1500 µM. Further, in the series with glucosamine-6-phosphate [2], the “self-cleavage kobs at 40 uM GlcN6P” value worked out at 4.27e-05 ± 6.4e-06 s⁻¹. In addition, the “self-cleavage kobs at 160 uM GlcN6P” value with glucosamine-6-phosphate [3] was determined as 9.55e-05 ± 1.5e-05 s⁻¹. Also, the “self-cleavage kobs at 640 uM GlcN6P” value with glucosamine-6-phosphate [4] was 0.000383 ± 4.9e-05 s⁻¹. The “self-cleavage kobs at 2500 uM GlcN6P” value with glucosamine-6-phosphate [5] is 0.0018 ± 0.00029 s⁻¹. Also, the “self-cleavage kobs at 10000 uM GlcN6P” value in the series with glucosamine-6-phosphate [6] was 0.00199 ± 0.00021 s⁻¹.
In the case of A15U G41A, the kcat in the series with glucosamine-6-phosphate [1] is 0.000124 ± 3.5e-05 s⁻¹. Besides, the “self-cleavage kobs at 640 uM GlcN6P” value in the series with glucosamine-6-phosphate [4] turned out to be 6.09e-05 ± 1.6e-05 s⁻¹. For the same variant, the “self-cleavage kobs at 2500 uM GlcN6P” value in the series with glucosamine-6-phosphate [5] stood at 0.000147 ± 2.5e-05 s⁻¹. The “self-cleavage kobs at 10000 uM GlcN6P” value with glucosamine-6-phosphate [6] was found to be 8.75e-05 ± 2.5e-05 s⁻¹.
With U45G U46G, in the series with glucosamine-6-phosphate [1], the kcat worked out at 0.00603 ± 0.0024 s⁻¹. Further, the “self-cleavage kobs at 40 uM GlcN6P” value with glucosamine-6-phosphate [2] is 7.27e-05 ± 1.4e-05 s⁻¹. Moreover, in the series with glucosamine-6-phosphate [3], the “self-cleavage kobs at 160 uM GlcN6P” value is 0.000206 ± 5.5e-05 s⁻¹. The “self-cleavage kobs at 640 uM GlcN6P” value in the series with glucosamine-6-phosphate [4] is 0.000961 ± 0.00019 s⁻¹. For the same variant, in the series with glucosamine-6-phosphate [5], the “self-cleavage kobs at 2500 uM GlcN6P” value was 0.00158 ± 0.00036 s⁻¹. In addition, in the series with glucosamine-6-phosphate [6], the “self-cleavage kobs at 10000 uM GlcN6P” value was found to be 0.00523 ± 0.00084 s⁻¹.
Consider U46G C67G, for which the kcat with glucosamine-6-phosphate [1] was determined as 0.000343 ± 3.5e-05 s⁻¹. Moreover, the KM in the series with glucosamine-6-phosphate [7] stood at 1360 ± 310 µM. Moreover, in the series with glucosamine-6-phosphate [2], the “self-cleavage kobs at 40 uM GlcN6P” value amounted to 2.99e-05 ± 1.3e-05 s⁻¹. The “self-cleavage kobs at 160 uM GlcN6P” value with glucosamine-6-phosphate [3] stood at 2.86e-05 ± 8.4e-06 s⁻¹. Moreover, in the series with glucosamine-6-phosphate [4], the “self-cleavage kobs at 640 uM GlcN6P” value is 0.000112 ± 1.1e-05 s⁻¹. Moreover, the “self-cleavage kobs at 2500 uM GlcN6P” value in the series with glucosamine-6-phosphate [5] was 0.000241 ± 2.8e-05 s⁻¹. In addition, the “self-cleavage kobs at 10000 uM GlcN6P” value with glucosamine-6-phosphate [6] was determined as 0.000295 ± 2.3e-05 s⁻¹.
